Test results as given in the supplement of paper PMC10567573.

B1: BTBD10 (parent)
chain: DRKLHSRPRKLYKHSSTSSRIAKG

Variants of: B1
Assay: protein stability index of a GFP-peptide fusion (GPS, HEK-293T) (PSI 1-6); higher = more stable
Conditions: c terminus: a fixed tail appended
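Further: lentivirally expressed fusions sorted by FACS into six bins by GFP to DsRed ratio, PSI derived from sequencing read proportions per bin multiplied by bin number.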

| Variant | protein stability index |
| --- | --- |
| DRKLHSRPEKLYKHSSTSSRIAKG | 4.19 |
| DRKLHSRPVKLYKHSSTSSRIAKG | 3.82 |
| DRKLHSRPAKLYKHSSTSSRIAKG | 4.1 |
| DRKLHSRPLKLYKHSSTSSRIAKG | 3.85 |
| DRKLHSRPPKLYKHSSTSSRIAKG | 3.69 |
| DRKLHSRPKKLYKHSSTSSRIAKG | 4.17 |
| DRKLHSRPQKLYKHSSTSSRIAKG | 4.11 |
| DRKLHSRPNKLYKHSSTSSRIAKG | 4.13 |
| DRKEHSRPRKLYKHSSTSSRIAKG | 4.28 |
| DRKVHSRPRKLYKHSSTSSRIAKG | 3.71 |
| DRKQHSRPRKLYKHSSTSSRIAKG | 4.08 |
| DRKDHSRPRKLYKHSSTSSRIAKG | 4.49 |
| DRKIHSRPRKLYKHSSTSSRIAKG | 3.62 |
| DRKHHSRPRKLYKHSSTSSRIAKG | 4.09 |
| DRKFHSRPRKLYKHSSTSSRIAKG | 3.92 |
| DRKRHSRPRKLYKHSSTSSRIAKG | 3.9 |
| DRKKHSRPRKLYKHSSTSSRIAKG | 4.28 |
| DRKLHSRPRNLYKHSSTSSRIAKG | 4.07 |
| DRKLHSRPRLLYKHSSTSSRIAKG | 3.77 |
| DRKLHSRPRVLYKHSSTSSRIAKG | 3.72 |
| DRKLHSRPRYLYKHSSTSSRIAKG | 3.94 |
| DRKLHSRPRQLYKHSSTSSRIAKG | 4.08 |
| DRKLHSRPRHLYKHSSTSSRIAKG | 4.07 |
| DRKLHSRPRFLYKHSSTSSRIAKG | 3.18 |

| Variant | protein stability index |
| --- | --- |
| DRKLHSRPRILYKHSSTSSRIAKG | 2.62 |
| DRKLHSRPRKLYKHSSTSPRIAKG | 4.34 |
| DRKLHSRPRKLYKHSSTSRRIAKG | 4.53 |
| DRKLHSRPRKLYKHSSTSARIAKG | 3.55 |
| DRKLHSRPRKLYKHSSTSQRIAKG | 3.63 |
| DRKLHSRPRKLYKHSSTSDRIAKG | 3.93 |
| DRKLHSRPRKLYKHSSTSFRIAKG | 3.23 |
| DRKLHSRPRKLYKHSSTSMRIAKG | 3.07 |
| DRKLHSRPRKLYKHSSTSHRIAKG | 3.5 |
| DRKLHSRPRKLYKHSSTSCRIAKG | 3.62 |
| DRKLHSRPRKLYKKSSTSSRIAKG | 3.64 |
| DRKLHSRPRKLYKWSSTSSRIAKG | 3.61 |
| DRKLHSRPRKLYKRSSTSSRIAKG | 4.05 |
| DRKLHSRPRKLYKESSTSSRIAKG | 4.13 |
| DRKLHSRPRKMYKHSSTSSRIAKG | 4.67 |
| DRKLHSRPRKNYKHSSTSSRIAKG | 3.46 |
| DRKLHSRPRKTYKHSSTSSRIAKG | 4.82 |
| DRKLHSRPRKRYKHSSTSSRIAKG | 4.42 |
| DRKLHSRPRKSYKHSSTSSRIAKG | 4.57 |
| DRKLHSRPRKCYKHSSTSSRIAKG | 2.99 |
| DRKLHSRPRKVYKHSSTSSRIAKG | 3.82 |
| DRKLHSRPRKYYKHSSTSSRIAKG | 3.7 |
| DRKLHSRPRKQYKHSSTSSRIAKG | 4.13 |
| DRKLHSRPRKEYKHSSTSSRIAKG | 4.49 |

| Variant | protein stability index |
| --- | --- |
| DRKLHSRPRKLYKHSDTSSRIAKG | 3.83 |
| DRKLHSRPRKLYKHSNTSSRIAKG | 4.28 |
| DRKLHSRPRKLYKHSETSSRIAKG | 3.99 |
| DRKLHSRPRKLYKHSQTSSRIAKG | 4.18 |
| DRKLHSRPRKLYKHSKTSSRIAKG | 2.94 |
| DRKLHSRPRKLYKHPSTSSRIAKG | 4.05 |
| DRKLHSRPRKLYKHASTSSRIAKG | 4.23 |
| DRKLHSRPRKLYKHYSTSSRIAKG | 3.67 |
| DRKLHSRPRKLYKHLSTSSRIAKG | 3.71 |
| DRKLHSRPRKLYKHMSTSSRIAKG | 3.1 |
| DRKLHSRPRKLYKHFSTSSRIAKG | 3 |
| DRKLHSRPRKLYKHQSTSSRIAKG | 3.85 |
| DRKLHSRPRKLYKHWSTSSRIAKG | 3.1 |
| DRKLHSRPRKLYKHSSTSSQIAKG | 4.2 |
| DRKLHSRPRKLYKHSSTSSNIAKG | 4.21 |
| DRKLHSRPRKLYKHSSTSSDIAKG | 4.28 |
| DRKLHSRPRKLYKHSSTSSFIAKG | 3.6 |
| DRKLHSRPRKLYKHSSTSSEIAKG | 4.04 |
| DRELHSRPRKLYKHSSTSSRIAKG | 4.03 |
| DRMLHSRPRKLYKHSSTSSRIAKG | 3.56 |
| DRHLHSRPRKLYKHSSTSSRIAKG | 4.41 |
| DRRLHSRPRKLYKHSSTSSRIAKG | 3.63 |
| DRWLHSRPRKLYKHSSTSSRIAKG | 3.64 |
| DRVLHSRPRKLYKHSSTSSRIAKG | 3.92 |

| Variant | protein stability index |
| --- | --- |
| DRALHSRPRKLYKHSSTSSRIAKG | 4.52 |
| DRNLHSRPRKLYKHSSTSSRIAKG | 3.55 |
| DRFLHSRPRKLYKHSSTSSRIAKG | 3.24 |
| DRKLHSRPRKLYKHSSTSSRDAKG | 4.6 |
| DRKLHSRPRKLYKHSSTSSRSAKG | 4.59 |
| DRKLHSRPRKLYKHSSTSSRAAKG | 3.5 |
| DRKLHSRPRKLYKHSSTSSRWAKG | 3.33 |
| DRKLHSRPRKLYKHSSTSSRYAKG | 4.48 |
| DRKLHSRPRKLYKHSSTSSRVAKG | 3.74 |
| DRKLHSRPRKLYKHSSTSSRGAKG | 4.71 |
| DRKLHSRPRKLYKHSSTSSRRAKG | 3.95 |
| DRKLHSRPRKLYKHSSTSSRHAKG | 4.04 |
| DRKLHSRPRKLHKHSSTSSRIAKG | 3.78 |
| DRKLHSRPRKLAKHSSTSSRIAKG | 4.54 |
| DRKLHSRPRKLEKHSSTSSRIAKG | 4.28 |
| DRKLHSRPRKLCKHSSTSSRIAKG | 3.84 |
| DRKLHSRPRKLSKHSSTSSRIAKG | 4.65 |
| DRKLHSRPRKLMKHSSTSSRIAKG | 3.11 |
| DRKLHSRPRKLFKHSSTSSRIAKG | 4.01 |
| DRKLHSRPRKLTKHSSTSSRIAKG | 4.05 |
| DRKLHSRPRKLPKHSSTSSRIAKG | 4.15 |
| DRKLHSRPRKLYKHSSLSSRIAKG | 4.48 |
| DRKLHSRPRKLYKHSSSSSRIAKG | 3.86 |
| DRKLHSRPRKLYKHSSRSSRIAKG | 4.45 |

| Variant | protein stability index |
| --- | --- |
| DRKLHSRPRKLYKHSSMSSRIAKG | 3.28 |
| DRKLHSRPRKLYKHSSGSSRIAKG | 2.9 |
| DRKLHSRPRKLYKHSSCSSRIAKG | 3.35 |
| DRKLHSRPRKLYKHSSQSSRIAKG | 3.98 |
| DRKLHSRPRKLYKHSSFSSRIAKG | 3.24 |
| DRKLHSRPRKLYKHSSPSSRIAKG | 3.88 |
| DRKLHSRPRKLYKHSSYSSRIAKG | 3.08 |
| DRKLHSKPRKLYKHSSTSSRIAKG | 3.33 |
| DRKLHSIPRKLYKHSSTSSRIAKG | 3.31 |
| DRKLHSWPRKLYKHSSTSSRIAKG | 2.97 |
| DRKLHSYPRKLYKHSSTSSRIAKG | 3.83 |
| DRKLHSMPRKLYKHSSTSSRIAKG | 3.84 |
| DRKLHSGPRKLYKHSSTSSRIAKG | 4.33 |
| DRKLHSDPRKLYKHSSTSSRIAKG | 4.54 |
| DRKLHSRPRKLYKHSSTSSRIAKI | 3.21 |
| DRKLHSRPRKLYKHSSTSSRIAKN | 4.3 |
| DRKLHSRPRKLYKHSSTSSRIAKS | 3.65 |
| DRKLHSRPRKLYKHSSTSSRIAKP | 4.05 |
| DRKLHSRPRKLYKHSSTSSRIAKW | 2.65 |
| DRKLHSRPRKLYKHSSTSSRIAKY | 3.33 |
| DRKLHSRPRKLYKHSSTSSRIAKM | 3.38 |
| DRKLHSRPRKLYKHSSTSSRIAKC | 3.3 |
| DRKLHSRPRKLYKHSSTSSRIAKE | 4.5 |
| DRKLHSRPRKLYKHSSTSSRIGKG | 3.91 |

| Variant | protein stability index |
| --- | --- |
| DRKLHSRPRKLYKHSSTSSRIDKG | 4.01 |
| DRKLHSRPRKLYKHSSTSSRINKG | 3.34 |
| DRKLHSRPRKLYKHSSTSSRIFKG | 2.99 |
| DRKLHSRPRKLYKHSSTSSRIHKG | 3.58 |
| DRKLHERPRKLYKHSSTSSRIAKG | 4.41 |
| DRKLHGRPRKLYKHSSTSSRIAKG | 3.48 |
| DRKLHQRPRKLYKHSSTSSRIAKG | 3.89 |
| DRKLHLRPRKLYKHSSTSSRIAKG | 2.4 |
| DRKLHPRPRKLYKHSSTSSRIAKG | 4.42 |
| DRKLHIRPRKLYKHSSTSSRIAKG | 3.58 |
| DRKLHCRPRKLYKHSSTSSRIAKG | 3.43 |
| DRKLHYRPRKLYKHSSTSSRIAKG | 3.78 |
| DRKLHSRPRKLYKHSSTPSRIAKG | 3.93 |
| DRKLHSRPRKLYKHSSTWSRIAKG | 2.71 |
| DRKLHSRPRKLYKHSSTVSRIAKG | 4.07 |
| DRKLHSRPRKLYKHSSTMSRIAKG | 3.63 |
| DRKLHSRPRKLYKHSSTHSRIAKG | 3.6 |
| DRKLHSRMRKLYKHSSTSSRIAKG | 3.02 |
| DRKLHSRWRKLYKHSSTSSRIAKG | 3.95 |
| DRKLHSRFRKLYKHSSTSSRIAKG | 2.21 |
| DRKLHSRTRKLYKHSSTSSRIAKG | 3.31 |
| DRKLHSRQRKLYKHSSTSSRIAKG | 4.24 |
| DRKLHSRNRKLYKHSSTSSRIAKG | 3.81 |
| DRKLHSRARKLYKHSSTSSRIAKG | 4.2 |

| Variant | protein stability index |
| --- | --- |
| DRKLHSRCRKLYKHSSTSSRIAKG | 4.03 |
| DFKLHSRPRKLYKHSSTSSRIAKG | 2.65 |
| DAKLHSRPRKLYKHSSTSSRIAKG | 3.42 |
| DGKLHSRPRKLYKHSSTSSRIAKG | 3.95 |
| DCKLHSRPRKLYKHSSTSSRIAKG | 3.62 |
| DVKLHSRPRKLYKHSSTSSRIAKG | 3.65 |
| DWKLHSRPRKLYKHSSTSSRIAKG | 3.68 |
| DSKLHSRPRKLYKHSSTSSRIAKG | 4.14 |
| DRKLHSRPRKLYKHSSTSSRIAAG | 3.72 |
| DRKLHSRPRKLYKHSSTSSRIARG | 3.27 |
| DRKLHSRPRKLYKHSSTSSRIAHG | 3.41 |
| DRKLHSRPRKLYKHSSTSSRIATG | 3.58 |
| DRKLHSRPRKLYKHSSTSSRIAPG | 3.44 |
| DRKLHSRPRKLYKHSSTSSRIAYG | 2.98 |
| DRKLHSRPRKLYKHSSTSSRIAFG | 3.56 |
| DRKLHSRPRKLYKHSSTSSRIACG | 3.17 |
| SRKLHSRPRKLYKHSSTSSRIAKG | 3.89 |
| ERKLHSRPRKLYKHSSTSSRIAKG | 3.89 |
| GRKLHSRPRKLYKHSSTSSRIAKG | 3.47 |
| NRKLHSRPRKLYKHSSTSSRIAKG | 4 |
| QRKLHSRPRKLYKHSSTSSRIAKG | 3.81 |
| WRKLHSRPRKLYKHSSTSSRIAKG | 2.8 |
| TRKLHSRPRKLYKHSSTSSRIAKG | 3.16 |
| LRKLHSRPRKLYKHSSTSSRIAKG | 3.2 |

| Variant | protein stability index |
| --- | --- |
| DRKLHSRPRKLYFHSSTSSRIAKG | 2.77 |
| DRKLHSRPRKLYGHSSTSSRIAKG | 4.42 |
| DRKLHSRPRKLYLHSSTSSRIAKG | 2.84 |
| DRKLHSRPRKLYPHSSTSSRIAKG | 3.86 |
| DRKLHSRPRKLYIHSSTSSRIAKG | 2.68 |
| DRKLHSRPRKLYDHSSTSSRIAKG | 4.23 |
| DRKLHSRPRKLYCHSSTSSRIAKG | 3.68 |
| DRKLHSRPRKLYHHSSTSSRIAKG | 3.65 |
| DRKLHSRPRKLYYHSSTSSRIAKG | 3.6 |
| DRKLHSRPRKLYRHSSTSSRIAKG | 3.74 |
| DRKLHSRPRKLYAHSSTSSRIAKG | 4.04 |
| DRKLHSRPRKLYNHSSTSSRIAKG | 3.61 |
| DRKLTSRPRKLYKHSSTSSRIAKG | 4.17 |
| DRKLMSRPRKLYKHSSTSSRIAKG | 3.43 |
| DRKLESRPRKLYKHSSTSSRIAKG | 4.09 |
| DRKLGSRPRKLYKHSSTSSRIAKG | 2.82 |
| DRKLNSRPRKLYKHSSTSSRIAKG | 5.44 |
| DRKLQSRPRKLYKHSSTSSRIAKG | 3.69 |
| DRKLKSRPRKLYKHSSTSSRIAKG | 4.09 |
| DRKLISRPRKLYKHSSTSSRIAKG | 3.74 |
